Here are results for two molecules from article PMC6197697, “Rice transcription factor OsMADS25 modulates root growth and confers salinity tolerance via the ABA–mediated regulatory pathway and ROS scavenging”.

The target in series [1] is T1, His-OsMADS25 (Oryza sativa, UniProt Q84NC5 1-227). The series is described as follows: EMSA; 5 mM Mg2+; 10 mM Tris pH 7.5, 50 mM KCl, 1 mM DTT, 2.5% glycerol, 5 mM MgCl2, 0.05% NP-40, 50 ng/ul poly(dI-dC), 30 ng protein, 400 fmol probe in 20 ul, 25 C 20 min (final values calculated from stocks). The note with it: protein: recombinant; tags: His (pET32a fusion); chain copies: 2; label: biotin 3' end; blunt.

Series [2] has as its target T1, His-OsMADS25. The series is described as follows: EMSA; 5 mM Mg2+; competition stated to confirm specificity; 10 mM Tris pH 7.5, 50 mM KCl, 1 mM DTT, 2.5% glycerol, 5 mM MgCl2, 0.05% NP-40, 50 ng/ul poly(dI-dC), 30 ng protein, 400 fmol probe in 20 ul, 25 C 20 min (final values calculated from stocks). The settings on record: protein: recombinant; tags: His (pET32a fusion); chain copies: 2; label: biotin 3' end; blunt.

T1 sequence (Q84NC5 whole entry, the tested form may be a part): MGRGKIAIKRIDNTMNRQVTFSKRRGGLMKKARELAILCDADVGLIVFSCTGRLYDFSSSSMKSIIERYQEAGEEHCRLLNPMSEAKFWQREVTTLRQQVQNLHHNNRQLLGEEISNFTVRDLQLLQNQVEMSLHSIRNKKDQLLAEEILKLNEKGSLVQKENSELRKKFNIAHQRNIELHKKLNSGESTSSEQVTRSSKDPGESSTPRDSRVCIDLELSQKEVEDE

B1: OsP5CR P1 probe (dsDNA)
DNA 1: CAGAGGGCATTCTCCCTAATAAGGCAGATACCTCCG
DNA 2: CGGAGGTATCTGCCTTATTAGGGAGAATGCCCTCTG
On to B1, for which the binding result with His-OsMADS25 [1] is “no binding”.

B2: OsP5CR P2 probe (dsDNA)
DNA 1: CGACGAATCCATTCATATATTTGTAGGGGCAGCGG
DNA 2: CCGCTGCCCCTACAAATATATGAATGGATTCGTCG
B2: the binding result in the series with His-OsMADS25 [2] is given as “binds”.
